Assay results published in US20120065136A1 (UNIVERSITY OF ROCHESTER, published 2012).

T1: A3C1C2 subunit of factor VIII (human, UniProt P00451 1709-2351)
T1 sequence: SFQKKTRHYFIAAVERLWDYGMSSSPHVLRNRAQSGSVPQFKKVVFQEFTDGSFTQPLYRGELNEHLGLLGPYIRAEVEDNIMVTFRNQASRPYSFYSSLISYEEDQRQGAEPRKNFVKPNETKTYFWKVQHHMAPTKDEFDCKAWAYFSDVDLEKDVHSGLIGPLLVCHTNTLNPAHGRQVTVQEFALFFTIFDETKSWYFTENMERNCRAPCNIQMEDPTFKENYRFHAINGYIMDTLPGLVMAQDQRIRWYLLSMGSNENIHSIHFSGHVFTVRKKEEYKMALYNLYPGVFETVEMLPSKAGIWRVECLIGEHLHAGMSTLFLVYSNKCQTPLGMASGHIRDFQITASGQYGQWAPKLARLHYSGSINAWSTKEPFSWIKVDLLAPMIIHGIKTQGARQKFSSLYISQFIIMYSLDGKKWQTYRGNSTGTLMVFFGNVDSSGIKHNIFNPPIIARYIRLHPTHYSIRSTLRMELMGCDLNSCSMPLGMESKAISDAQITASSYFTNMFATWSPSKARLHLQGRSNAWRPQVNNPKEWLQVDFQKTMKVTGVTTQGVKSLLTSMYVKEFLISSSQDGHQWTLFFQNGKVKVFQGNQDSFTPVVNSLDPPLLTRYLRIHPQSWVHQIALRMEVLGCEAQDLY


Columns and labels:
[1] = molecular target: T1, A3C1C2 subunit of factor VIII; experiment: cell-based or functional assay
[2] = molecular target: T1, A3C1C2 subunit of factor VIII; experiment: fluorescence titration of acrylodan-labeled A1 (15 nM) with A3C1C2 (0-300 nM), pH 7.4, quadratic fit
Protocol: (§1) Purified A1 subunit from WT and Ala108Ile factor VIII was labeled with acrylodan by sulfhydryl specific protein modification as previously described (Wakabayashi et al., “Metal Ion-independent Association of Factor VIII Subunits and the Roles of Calcium and Copper Ions for Cofactor Activity and Inter-subunit Affinity,” Biochemistry 40:10293-10300 (2001), which is hereby incorporated by reference in its entirety). A1 (15 nM) from WT or Ala108Ile factor VIII was reconstituted with A3C1C2 subunit (0-300 nM) at 37° C. for 2 h in buffer B at pH 7.4. Fluorescence measurements were performed using an Aminco-Bowman Series 2 Luminescence Spectrometer (Thermo Spectronic, Rochester, N.Y.) at 23° C. at an excitation wavelength of 395 nm (2 nm bandwidth). Fluorescence emission was monitored at 480-490 nm (8 nm bandwidth) and all spectra were corrected for background. Data were fitted to a quadratic equation by non-linear least squares regression and parameter values were obtained.
(§2) To assess the affinity of the Ala108Ile A1 domain for C2 domain, the purified factor VIII variant and WT were treated with thrombin and the A1 subunits were separately purified as described supra. A1 subunits were then reacted with the environment-sensitive fluorescent probe, acrylodan, and these reagents were used to probe binding with the A3C1C2 subunit. […]

[3] = molecular target: T1, A3C1C2 subunit of factor VIII; experiment: fluorescence titration of acrylodan-labeled A1 with A3C1C2
Protocol: as §1, §2

[4] = molecular target: T1, A3C1C2 subunit of factor VIII; experiment: changes in fluorescence of acrylodan labeled-A1 subunits
Protocol: as §1, §2

Binder	fold reduction of decay rate against WT A1 [1]	Kd [2]	fold increase in affinity against WT A1 [3]	fold increase in binding affinity against WT [4]
A1 subunit from Ala108Ile factor VIII (other) ATRRYYLGAVELSWDYMQSDLGELPVDARFPPRVPKSFPFNTSVVYKKTLFVEFTVHLFNIAKPRPPWMGLLGPTIQAEVYDTVVITLKNMASHPVSLHAVGVSYWKISEGAEYDDQTSQREKEDDKVFPGGSHTYVWQVLKENGPMASDPLCLTYSYLSHVDLVKDLNSGLIGALLVCREGSLAKEKTQTLHKFILLFAVFDEGKSWHSETKNSLMQDRDAASARAWPKMHTVNGYVNRSLPGLIGCHRKSVYWHVIGMGTTPEVHSIFLEGHTFLVRNHRQASLEISPITFLTAQTLLMDLGQFLLFCHISSHQHDGMEAYVKVDSCPEEPQLRMKNNEEAEDYDDDLTDSEMDVVRFDDDNSPSFIQIR	4.6 fold			
acrylodan-labeled A1 subunit from WT factor VIII (other, acrylodan on a free thiol, likely Cys310, A1 subunit purified from thrombin-cleaved, EDTA-treated recombinant B-domainless WT factor VIII (BHK cells), then labelled with acrylodan; also called AcA1 (WT); WT A1 subunit) ATRRYYLGAVELSWDYMQSDLGELPVDARFPPRVPKSFPFNTSVVYKKTLFVEFTVHLFNIAKPRPPWMGLLGPTIQAEVYDTVVITLKNMASHPVSLHAVGVSYWKASEGAEYDDQTSQREKEDDKVFPGGSHTYVWQVLKENGPMASDPLCLTYSYLSHVDLVKDLNSGLIGALLVCREGSLAKEKTQTLHKFILLFAVFDEGKSWHSETKNSLMQDRDAASARAWPKMHTVNGYVNRSLPGLIGCHRKSVYWHVIGMGTTPEVHSIFLEGHTFLVRNHRQASLEISPITFLTAQTLLMDLGQFLLFCHISSHQHDGMEAYVKVDSCPEEPQLRMKNNEEAEDYDDDLTDSEMDVVRFDDDNSPSFIQIR		88.7 nM		
acrylodan-labeled A1 subunit from Ala108Ile factor VIII (other, acrylodan on a free thiol, likely Cys310, A1 subunit purified from thrombin-cleaved, EDTA-treated B-domainless Ala108Ile factor VIII, then labelled with acrylodan; also called AcA1 (Ala108Ile); Ala108Ile A1) ATRRYYLGAVELSWDYMQSDLGELPVDARFPPRVPKSFPFNTSVVYKKTLFVEFTVHLFNIAKPRPPWMGLLGPTIQAEVYDTVVITLKNMASHPVSLHAVGVSYWKISEGAEYDDQTSQREKEDDKVFPGGSHTYVWQVLKENGPMASDPLCLTYSYLSHVDLVKDLNSGLIGALLVCREGSLAKEKTQTLHKFILLFAVFDEGKSWHSETKNSLMQDRDAASARAWPKMHTVNGYVNRSLPGLIGCHRKSVYWHVIGMGTTPEVHSIFLEGHTFLVRNHRQASLEISPITFLTAQTLLMDLGQFLLFCHISSHQHDGMEAYVKVDSCPEEPQLRMKNNEEAEDYDDDLTDSEMDVVRFDDDNSPSFIQIR		24.1 nM	~4 fold	~3.7 fold
